From the supplement of paper PMC6757056
± gives the standard deviation of the averaged measurements.

B1: library; a variant is named by its letters at N, in order (parent)
chain: GCUGUCACCGAGAAACUGUGAAGUAUAUCUUAAACCUGGGCACUUAAAAGAUAUAUGGAGUUAGUAGUGCAACCUGCUCGGUCUGAUGAGUCCNNNNNNGGACGAAACAGC

How the values were obtained:
[1] = variants of: B1; test: FACS-Seq fitted mean relative fluorescence mCherry/BFP without ligand (log10 relative fluorescence); HEK293T; ligand: cyclic di-GMP (c-di-GMP-II aptamer); higher = higher reporter protein expression; conditions: ligand present: no
Outline: (§1)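 HEK293T libraries were made by lentiviral transduction with a ribozyme-switch mCherry reporter and an EF1α-BFP marker, enriched, and incubated with or without ligand for 48 h. Cells were sorted into 6 mCherry/BFP bins, and each bin's genomic DNA was PCR-amplified, barcoded and run on MiSeq. Fluorescence was derived by normal fitting of the bin counts. The fitted log10(mCherry/BFP) mean was scaled to five spiked-in control ribozymes.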

[2] = variants of: B1; test: normalized RNA/DNA level without ligand (relative to sTRSVctl = 100) (log10 (% of sTRSVctl)); HEK293T; ligand: cyclic di-GMP (c-di-GMP-II aptamer); higher = less ribozyme self-cleavage, higher mRNA level; conditions: reporter: mCherry (pCS4076), ligand present: no
Protocol: (§2)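 Hammerhead (sTRSV) ribozyme switch libraries with a ligand aptamer grafted on stem I and a randomized N4-6 loop II, cloned into the 3' UTR of mCherry and transiently transfected into HEK293T cells; RNA-Seq 72 h post transfection with ligand added 1 h before transfection; RNA read count / plasmid DNA read count normalized to the non-cleaving sTRSVctl (x100), log10; sequences with >100 DNA reads. FACS-Seq: lentiviral library sorted into 6 bins after 48 h ligand, log-normal fit mean of mCherry/BFP scaled to controls. Printed sequences are partial switch sequences.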

[3] = variants of: B1; test: FACS-Seq fitted mean relative fluorescence mCherry/BFP with ligand (log10 relative fluorescence); HEK293T; ligand: cyclic di-GMP (c-di-GMP-II aptamer); ligand concentration (+) FACS-Seq: 1 mM; higher = higher reporter protein expression; conditions: ligand present: yes
Outline: as §1

[4] = variants of: B1; test: normalized RNA/DNA level with ligand (relative to sTRSVctl = 100) (log10 (% of sTRSVctl)); HEK293T; ligand: cyclic di-GMP (c-di-GMP-II aptamer); ligand concentration (+) RNA-Seq: 1 mM; higher = less ribozyme self-cleavage, higher mRNA level; conditions: reporter: mCherry (pCS4076), ligand present: yes
Protocol: as §2

Variant	FACS-Seq fitted mean (log10) [1]	normalized RNA/DNA level without ligand (log10) [2]	FACS-Seq fitted mean (log10) [3]	normalized RNA/DNA level with ligand (log10) [4]
UCACGU	-0.191 ± 0.32	1.6 ± 0.044	0.0669 ± 0.07	1.79 ± 0.074
AACAAG	-0.43 ± 0.028	1.523 ± 0.0073	-0.281 ± 0.037	1.73 ± 0.088
AAGAAC	-1.03 ± 0.025	1.55 ± 0.029	-0.842 ± 0.066	1.73 ± 0.1
AGCCAA	-0.274 ± 0.071	1.53 ± 0.072	-0.0148 ± 0.057	1.73 ± 0.053
CCGGGG	-0.589 ± 0.03	1.43 ± 0.022	-0.295 ± 0.011	1.62 ± 0.11
AAGGGU	-0.547 ± 0.0094	1.53 ± 0.091	-0.278 ± 0.052	1.7 ± 0.061
CGUUUA	-0.544 ± 0.037	1.32 ± 0.077	-0.288 ± 0.098	1.46 ± 0.064
AGCAGC	-0.317 ± 0.18	1.72 ± 0.048	-0.109 ± 0.057	1.86 ± 0.069
CCAAUA	-0.5437 ± 0.0029	1.36 ± 0.12	-0.271 ± 0.066	1.59 ± 0.11
AGAAUC	-0.291 ± 0.023	1.63 ± 0.06	-0.0843 ± 0.044	1.78 ± 0.073
CGUCCU	-0.313 ± 0.09	1.6 ± 0.033	0.0379 ± 0.021	1.78 ± 0.12
CGCUAC	-0.231 ± 0.14	1.65 ± 0.021	0.045 ± 0.046	1.81 ± 0.11
UGAGUG	-0.0499 ± 0.13	1.7246 ± 0.00091	0.259 ± 0.047	1.83 ± 0.091
AAACUA	-0.338 ± 0.065	1.49 ± 0.031	-0.0568 ± 0.0064	1.65 ± 0.11
CGUGAA	-0.546 ± 0.02	1.24 ± 0.057	-0.396 ± 0.0075	1.35 ± 0.099
GUCAGG	-1.25 ± 0.11	1.74 ± 0.063	-0.78 ± 0.093	1.81 ± 0.087
CCCGGU	-0.55 ± 0.093	1.724 ± 0.003	-0.114 ± 0.093	1.87 ± 0.11
UCAAUA	-0.525 ± 0.048	1.4 ± 0.085	-0.157 ± 0.078	1.63 ± 0.089
